We go through two molecules from patent US20250257126A1 (CAMBRIDGE ENTERPRISE, published 2025).

The target in one experiment is T1, murine LGR5 transgene (mouse, UniProt Q9Z1P4 22-907).
T1 construct: whole, on cells; Overexpressed in HEK293T cells with N-terminal HA tag, V2 receptor tail and eGFP; also tested as lysate; also called mLGR5; mLGR5-eGFP
T1 sequence (looked up): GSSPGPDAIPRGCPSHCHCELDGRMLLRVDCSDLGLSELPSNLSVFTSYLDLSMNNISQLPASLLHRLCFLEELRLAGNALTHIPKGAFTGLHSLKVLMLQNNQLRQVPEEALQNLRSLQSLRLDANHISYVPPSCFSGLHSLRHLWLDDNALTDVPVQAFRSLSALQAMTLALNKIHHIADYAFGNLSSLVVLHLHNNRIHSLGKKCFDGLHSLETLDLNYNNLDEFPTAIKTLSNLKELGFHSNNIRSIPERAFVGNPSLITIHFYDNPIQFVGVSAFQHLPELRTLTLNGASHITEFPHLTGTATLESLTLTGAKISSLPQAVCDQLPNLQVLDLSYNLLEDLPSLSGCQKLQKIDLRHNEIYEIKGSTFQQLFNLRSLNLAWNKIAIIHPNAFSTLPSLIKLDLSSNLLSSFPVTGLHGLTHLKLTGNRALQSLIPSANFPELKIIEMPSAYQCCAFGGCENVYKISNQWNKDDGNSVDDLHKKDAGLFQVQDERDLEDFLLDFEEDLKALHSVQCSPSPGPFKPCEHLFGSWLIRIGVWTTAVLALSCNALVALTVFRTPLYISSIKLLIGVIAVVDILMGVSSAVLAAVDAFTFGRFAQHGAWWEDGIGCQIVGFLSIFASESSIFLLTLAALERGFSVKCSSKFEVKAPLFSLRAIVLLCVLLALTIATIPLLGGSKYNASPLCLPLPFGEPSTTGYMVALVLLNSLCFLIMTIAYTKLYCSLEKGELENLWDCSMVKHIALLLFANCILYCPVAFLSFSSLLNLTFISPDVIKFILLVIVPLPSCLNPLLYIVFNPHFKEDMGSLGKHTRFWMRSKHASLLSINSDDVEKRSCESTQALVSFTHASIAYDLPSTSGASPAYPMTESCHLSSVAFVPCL
Kind of experiment: western blot of lysates of HEK293T cells expressing the LGR transgenes. (A western blot detects proteins with antibodies after separation by electrophoresis.)

A further experiment deals with T2, murine LGR6 transgene (mouse, UniProt Q3UVD5 23-967).
T2 construct: whole, on cells; also called mLGR6
T2 sequence (looked up): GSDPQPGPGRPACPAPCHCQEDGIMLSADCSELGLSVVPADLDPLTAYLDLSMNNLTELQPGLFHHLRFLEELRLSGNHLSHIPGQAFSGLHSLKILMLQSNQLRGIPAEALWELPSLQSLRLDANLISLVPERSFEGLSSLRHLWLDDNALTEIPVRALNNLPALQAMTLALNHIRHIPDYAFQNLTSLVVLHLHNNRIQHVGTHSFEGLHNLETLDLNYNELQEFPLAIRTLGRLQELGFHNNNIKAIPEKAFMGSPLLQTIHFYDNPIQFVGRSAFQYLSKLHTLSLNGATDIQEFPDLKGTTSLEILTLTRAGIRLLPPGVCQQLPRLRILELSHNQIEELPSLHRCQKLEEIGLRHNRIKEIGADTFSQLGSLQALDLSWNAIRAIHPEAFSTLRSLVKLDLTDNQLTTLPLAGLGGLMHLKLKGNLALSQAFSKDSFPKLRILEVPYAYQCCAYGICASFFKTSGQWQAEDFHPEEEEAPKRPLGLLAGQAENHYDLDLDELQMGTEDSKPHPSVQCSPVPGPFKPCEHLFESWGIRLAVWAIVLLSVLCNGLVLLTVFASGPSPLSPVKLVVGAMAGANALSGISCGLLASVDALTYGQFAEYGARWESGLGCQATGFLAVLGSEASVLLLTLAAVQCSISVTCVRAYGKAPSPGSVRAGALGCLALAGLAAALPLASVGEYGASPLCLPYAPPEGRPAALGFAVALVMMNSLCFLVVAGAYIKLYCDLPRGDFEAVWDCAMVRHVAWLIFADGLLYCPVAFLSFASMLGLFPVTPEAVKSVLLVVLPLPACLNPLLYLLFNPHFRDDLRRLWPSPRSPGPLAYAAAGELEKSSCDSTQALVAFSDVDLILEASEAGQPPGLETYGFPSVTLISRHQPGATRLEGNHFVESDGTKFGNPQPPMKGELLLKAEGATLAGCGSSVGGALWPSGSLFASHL
Kind of experiment: indirect immunofluorescence on HEK293T cells expressing human and murine LGR family transgenes (FIG. 14B).

The target of another experiment is T3, human LGR6 transgene (human, UniProt Q9HBX8 25-967).
T3 construct: whole, on cells; Overexpressed in HEK293T cells with N-terminal HA tag, V2 receptor tail and eGFP; also tested as lysate; also called hLGR6; LGR6-eGFP
T3 sequence (looked up): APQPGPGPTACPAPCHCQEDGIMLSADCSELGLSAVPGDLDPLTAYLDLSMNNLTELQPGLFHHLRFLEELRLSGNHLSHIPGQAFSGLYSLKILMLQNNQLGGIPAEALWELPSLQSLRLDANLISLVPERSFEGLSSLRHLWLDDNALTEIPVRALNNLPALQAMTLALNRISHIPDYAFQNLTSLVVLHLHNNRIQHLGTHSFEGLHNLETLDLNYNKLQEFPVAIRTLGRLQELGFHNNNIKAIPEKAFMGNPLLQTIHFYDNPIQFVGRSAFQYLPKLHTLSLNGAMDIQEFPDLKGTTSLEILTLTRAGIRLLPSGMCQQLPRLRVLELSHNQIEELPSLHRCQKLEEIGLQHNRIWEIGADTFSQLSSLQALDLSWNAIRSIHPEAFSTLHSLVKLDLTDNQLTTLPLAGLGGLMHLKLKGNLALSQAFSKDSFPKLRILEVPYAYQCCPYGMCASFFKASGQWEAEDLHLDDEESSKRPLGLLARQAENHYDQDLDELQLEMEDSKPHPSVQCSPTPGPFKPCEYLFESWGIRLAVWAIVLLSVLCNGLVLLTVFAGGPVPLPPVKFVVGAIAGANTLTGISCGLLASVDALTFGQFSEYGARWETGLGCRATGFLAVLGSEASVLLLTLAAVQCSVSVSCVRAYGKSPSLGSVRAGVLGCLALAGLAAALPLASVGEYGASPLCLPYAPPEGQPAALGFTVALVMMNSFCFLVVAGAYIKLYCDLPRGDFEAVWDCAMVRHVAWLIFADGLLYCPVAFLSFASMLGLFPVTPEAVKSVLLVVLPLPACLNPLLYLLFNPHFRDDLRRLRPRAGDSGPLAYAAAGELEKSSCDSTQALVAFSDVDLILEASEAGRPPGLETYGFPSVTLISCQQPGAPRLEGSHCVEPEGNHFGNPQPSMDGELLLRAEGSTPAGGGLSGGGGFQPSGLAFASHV
Described as above.

B1: hybridoma clone 12 (antibody, V domains shown)
VH: EVQLQQSGPELVKPGASVKISCKASGYTFTDYYMNWVKQSHGKSLEWIGDINPNNGGTIYNQKFKGKATLTVDKSSSTAYMELRSLTSEDSAVYYCASGYLFDYWGPGTTLTVSS
VL: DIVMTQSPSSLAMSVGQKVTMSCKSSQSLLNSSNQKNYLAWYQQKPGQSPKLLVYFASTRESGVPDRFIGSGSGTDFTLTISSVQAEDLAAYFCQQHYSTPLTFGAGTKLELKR
notes: Murine antibody; also called antibody 12
For the molecule B1, the binding result in the experiment with murine LGR5 transgene is reported as “no binding”.

B2: α-LGR5 variant 4 (antibody, human IgG1, kappa, V domains shown)
VH: QVQLVQSGAEVKKPGASVKVSCKASGYTFTNYWMQWVRQAPGQGLEWIGEIDPSDSYTNYNQKFQGRVTLTVDTSTSTAYMELSSLRSEDTAVYYCARSLSGYVDYWGQGTTVTVSS
VL: EIVMTQSPATLSLSPGERATLSCRASQDISNRLNWYQQKPGQAVRLLISYRSRRHTGIPARFSGSGSGTDYTLTISSLEPEDFAVYYCQQGNSLPPTFGGGTKLEIKR
notes: Humanized antibody; also called α-LGR5v4; clone 2.4
As to B2, the binding result with murine LGR6 transgene and with human LGR6 transgene was “no binding” each time.
